# Data reported in patent US20180244758A1 (MAPP BIOPHARMACEUTICAL, published 2018).
# Substitutions are numbered along the chain they refer to.
# T1: EBOV GP on rVSV particles (Ebola virus (EBOV), UniProt Q05320 33-676)
# T1 sequence: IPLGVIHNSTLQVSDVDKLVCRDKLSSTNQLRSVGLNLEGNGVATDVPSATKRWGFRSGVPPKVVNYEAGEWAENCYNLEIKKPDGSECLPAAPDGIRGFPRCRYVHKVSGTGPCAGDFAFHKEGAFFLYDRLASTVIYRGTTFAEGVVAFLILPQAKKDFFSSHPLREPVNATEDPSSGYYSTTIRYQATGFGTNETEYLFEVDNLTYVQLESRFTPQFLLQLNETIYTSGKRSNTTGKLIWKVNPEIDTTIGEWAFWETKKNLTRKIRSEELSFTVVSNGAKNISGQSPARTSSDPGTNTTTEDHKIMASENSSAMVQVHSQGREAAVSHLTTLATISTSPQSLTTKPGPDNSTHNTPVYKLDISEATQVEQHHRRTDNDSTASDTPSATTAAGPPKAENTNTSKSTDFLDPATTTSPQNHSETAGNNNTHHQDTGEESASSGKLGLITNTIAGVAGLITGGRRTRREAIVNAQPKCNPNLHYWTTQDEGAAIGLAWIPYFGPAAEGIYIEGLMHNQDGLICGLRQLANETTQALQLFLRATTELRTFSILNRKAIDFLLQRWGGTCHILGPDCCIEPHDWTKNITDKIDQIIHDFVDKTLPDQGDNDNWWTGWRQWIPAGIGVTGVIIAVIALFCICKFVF
# T2: RESTV GP on rVSV particles (Reston virus (RESTV), UniProt Q66799 34-677)
# T2 sequence: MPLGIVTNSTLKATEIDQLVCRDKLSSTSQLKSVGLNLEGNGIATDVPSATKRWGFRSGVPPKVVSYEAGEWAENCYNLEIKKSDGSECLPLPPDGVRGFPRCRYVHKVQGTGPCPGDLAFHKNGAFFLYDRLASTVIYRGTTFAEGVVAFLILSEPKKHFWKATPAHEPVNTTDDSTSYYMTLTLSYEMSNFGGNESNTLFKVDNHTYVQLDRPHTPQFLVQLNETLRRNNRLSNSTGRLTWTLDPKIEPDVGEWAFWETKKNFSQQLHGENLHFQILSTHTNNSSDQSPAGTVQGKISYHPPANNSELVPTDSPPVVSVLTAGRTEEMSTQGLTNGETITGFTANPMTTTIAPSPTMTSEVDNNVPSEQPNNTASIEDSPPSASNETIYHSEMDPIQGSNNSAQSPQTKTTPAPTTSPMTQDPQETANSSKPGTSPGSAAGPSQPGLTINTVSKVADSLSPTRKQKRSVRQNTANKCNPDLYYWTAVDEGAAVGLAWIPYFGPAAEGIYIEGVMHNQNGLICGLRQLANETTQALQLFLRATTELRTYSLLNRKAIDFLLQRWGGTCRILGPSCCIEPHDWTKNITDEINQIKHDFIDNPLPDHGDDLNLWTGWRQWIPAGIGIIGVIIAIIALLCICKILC
# T3: SUDV GP on rVSV particles (Sudan virus (SUDV), UniProt Q66814 33-676)
# T3 sequence: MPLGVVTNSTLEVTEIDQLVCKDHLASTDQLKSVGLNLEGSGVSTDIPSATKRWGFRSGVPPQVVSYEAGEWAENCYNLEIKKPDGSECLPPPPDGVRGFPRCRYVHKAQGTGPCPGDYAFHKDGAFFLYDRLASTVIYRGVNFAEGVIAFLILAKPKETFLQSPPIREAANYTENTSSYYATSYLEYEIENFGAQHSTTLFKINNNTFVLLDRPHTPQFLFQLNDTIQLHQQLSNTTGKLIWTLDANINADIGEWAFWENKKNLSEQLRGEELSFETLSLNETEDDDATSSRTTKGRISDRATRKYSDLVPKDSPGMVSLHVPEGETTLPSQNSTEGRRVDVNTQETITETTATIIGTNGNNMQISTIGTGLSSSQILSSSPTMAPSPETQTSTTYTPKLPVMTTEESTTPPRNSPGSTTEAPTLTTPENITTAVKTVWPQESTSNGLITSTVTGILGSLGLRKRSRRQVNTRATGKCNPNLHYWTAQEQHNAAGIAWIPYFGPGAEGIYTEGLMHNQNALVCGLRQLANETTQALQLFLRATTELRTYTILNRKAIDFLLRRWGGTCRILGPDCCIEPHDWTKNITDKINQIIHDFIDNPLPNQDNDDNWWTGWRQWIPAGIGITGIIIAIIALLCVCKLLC
# B1: mAb PE-05 (antibody, V domains shown)
# VH: QVQLQESGGGLVKPGRSLRLSCTASGFTFGDYAMSWFRQAPGKGLEWVGFLRSKAYGGTAEYAASVKGRFTMSRDDSKSIAYLQMNSLKTEDTAVYFCTRDGFRGSSWGYSYYGMDVWGQGTTVTVSS
# VL: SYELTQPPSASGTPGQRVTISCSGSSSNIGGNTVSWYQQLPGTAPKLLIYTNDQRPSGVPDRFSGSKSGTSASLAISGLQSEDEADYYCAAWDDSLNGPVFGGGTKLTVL
# B2: mAb PE-47 (antibody, V domains shown)
# VH: EVQLVESGGGLVKPGGSLRLSCAASGFTFSNAWMSWVRQAPGEGLEWVGRIKSKTDGGTIDYAAPVKGRFTISRDDSKNTVYLQMTSLKTEDTAVYYCTTYTEDMQYFDWLLRGGETFDYWGQGTLVTVSS
# VL: DIQMTQSPSSLSASVGDRVTITCRASQYISTYLNWYQQKPGKAPKLLIYAAYNLQSGVPSRFSGSGSGTDFTLTISSLQPEDFATYYCQQSYSTPGRYTFGQGTKVEIK
# B3: mAb PE-16 (antibody, V domains shown)
# VH: QVQLVQSGAEVTKPGASVKVSCKASGYTFTTYYMHWVRQAPGQGLEWVGIINPSGGITRYAQKFQGRVTLTRDTSTTTVYMELSSLRSEDTAVYYCARDRYPVLFATDYGMDVWGQGTTVTVSS
# VL: DIVMTQSPATLSLSPGERATLSCRASQSVSGYLAWYQQKPGQAPRLLIYDASNRATGIPARFSGSGSGTDFTLTISSLEPEDFAVYYCQQRSIWPPGVTFGGGTKVEIK
# B4: mAb PE-87 (antibody, V domains shown)
# VH: QVQLVQSGVTLVQPGGSLRVSCAASGFTFSSYAMSWVRQAPGKGLEWVSAISGLGGSTYYADSVKGRFTISRDNSKNTLYLQMNSLRAEDTAVYYCAKDHRVWAAGYHFDYWGQGALVTVSS
# VL: DIVLTQSPSTLSASVGDRVTITCRASQSISSWLAWYQQKPGEAPKLLISDASSLESGVPSRFSGSGSGTEFTLTISSLQPDDFATYYCQQYYSSPTFGGGTKVEIK
# B5: mAb PE-24 (antibody, V domains shown)
# VH: EVQLVESGGGLVQPGGSLRLSCAASGFTFSSYAMSWVRQAPGKGLEWVSEISGLGGSTYYADSAKGRFTISRDNSKSTLYLQMNSLRAEDTAVYYCAKDHRVWAPGYYFDHWGQGTLVTVSS
# VL: B4 VL with E42K, S49Y, Y87F, Y92N, S93R
# Molecular target: T1, EBOV GP on rVSV particles
# Experiment: cell-based or functional assay
row,Binder,"Neutralization (VSV-GP IC50, nM)"
1,B1,8.8 nM
2,B2,6.6 nM
3,B3,0.2 nM
4,B4,0.5 nM
5,B5,1.8 nM

# Molecular target: T4, BDBV GP on rVSV particles (Bundibugyo virus (BDBV))
# Experiment: cell-based or functional assay
row,Binder,"Neutralization (VSV-GP IC50, nM)"
1,B1,3.7 nM
2,B2,0.4 nM
3,B3,0.6 nM
4,B4,0.5 nM
5,B5,0.8 nM

# Molecular target: T2, RESTV GP on rVSV particles
# Experiment: cell-based or functional assay
row,Binder,"Neutralization (VSV-GP IC50, nM)"
1,B1,22 nM
2,B4,0.2 nM
3,B5,0.2 nM

# Molecular target: GP of authentic (wild-type) BDBV (Bundibugyo virus (BDBV))
# Experiment: cell-based or functional assay
row,Binder,Microneut. WT IC50
1,B2,0.5 nM
2,B3,0.2 nM
3,B4,0.4 nM
4,B5,0.3 nM

# Molecular target: T1, EBOV GP on rVSV particles
# Experiment: cell-based or functional assay
# Remark: another data set of the same source
row,Binder,rVSV-GP neutralization IC50
1,B1,9 nM
2,B3,0.2 nM
3,B4,0.5 nM
4,B5,2 nM

# Molecular target: T3, SUDV GP on rVSV particles
# Experiment: cell-based or functional assay
row,Binder,rVSV-GP neutralization IC50
1,B1,34 nM
2,B4,0.3 nM
3,B5,0.5 nM

# Molecular target: T4, BDBV GP on rVSV particles
# Experiment: cell-based or functional assay
# Remark: another data set of the same source
row,Binder,rVSV-GP neutralization IC50
1,B1,4 nM
2,B3,0.6 nM
3,B4,0.5 nM
4,B5,1 nM

# Molecular target: T2, RESTV GP on rVSV particles
# Experiment: cell-based or functional assay
# Remark: another data set of the same source
row,Binder,rVSV-GP neutralization IC50
1,B1,22 nM
2,B4,0.2 nM
3,B5,0.2 nM
